From paper PMC3830201, “Swiprosin-1 modulates actin dynamics by regulating the F-actin accessibility to cofilin” (Cellular and Molecular Life Sciences: CMLS, 2013)

Biological target: F-actin assembled from rabbit skeletal muscle G-actin (rabbit, UniProt P68135 1-377)
Assay: co-sedimentation; purified GST or GST-Swiprosin-1 proteins incubated with 5 uM G-actin in actin polymerization buffer (MgCl2, KCl, ATP) at 25 C to assemble filaments; ultracentrifuged at 45,000 rpm; supernatant and pellet by SDS-PAGE, Coomassie
Conditions: both partners purified

binding result | Binder
binds | GST-Swiprosin-1 fusion protein (wild type) (natural protein, Swiprosin-1 (EF hand domain containing 2, EFHD2), human (hSwiprosin-1); Cloned into pGEX4T1; also called GST-Swiprosin-1-WT; GST-Sw-WT; source: purified GST fusion protein (pGEX4T1); also used on agarose beads) MATDELATKLSRRLQMEGEGGGETPEQPGLNGAAAAAAGAPDEAAEALGSADCELSAKLLRRADLNQGIGEPQSPSRRVFNPYTEFKEFSRKQIKDMEKMFKQYDAGRDGFIDLMELKLMMEKLGAPQTHLGLKNMIKEVDEDFDSKLSFREFLLIFRKAAAGELQEDSGLCVLARLSEIDVSSEGVKGAKSFFEAKVQAINVSSRFEEEIKAEQEERKKQAEEMKQRKAAFKELQSTFK
binds | GST-Swiprosin-1 S183E (phosphorylation-mimicking mutant) (natural protein, Swiprosin-1 (EFHD2), human (hSwiprosin-1); also called GST-Sw-S183E; source: purified GST fusion protein (pGEX4T1)) MATDELATKLSRRLQMEGEGGGETPEQPGLNGAAAAAAGAPDEAAEALGSADCELSAKLLRRADLNQGIGEPQSPSRRVFNPYTEFKEFSRKQIKDMEKMFKQYDAGRDGFIDLMELKLMMEKLGAPQTHLGLKNMIKEVDEDFDSKLSFREFLLIFRKAAAGELQEDSGLCVLARLSEIDVESEGVKGAKSFFEAKVQAINVSSRFEEEIKAEQEERKKQAEEMKQRKAAFKELQSTFK
binds | GST-Swiprosin-1 S183A (phosphorylation-deficient mutant) (natural protein, Swiprosin-1 (EFHD2), human (hSwiprosin-1); also called GST-Sw-S183A; source: purified GST fusion protein (pGEX4T1)) MATDELATKLSRRLQMEGEGGGETPEQPGLNGAAAAAAGAPDEAAEALGSADCELSAKLLRRADLNQGIGEPQSPSRRVFNPYTEFKEFSRKQIKDMEKMFKQYDAGRDGFIDLMELKLMMEKLGAPQTHLGLKNMIKEVDEDFDSKLSFREFLLIFRKAAAGELQEDSGLCVLARLSEIDVASEGVKGAKSFFEAKVQAINVSSRFEEEIKAEQEERKKQAEEMKQRKAAFKELQSTFK
